Data taken from US8623997B2, “Variant Hhip1 protein and methods and uses thereof” (Curis, Inc., priority 2008, dated 2014).

Tests used:
[1] = molecular target: T1, biotinylated-ShhN-Cys (Homo sapiens, UniProt Q15465); assay: Bio-layer interferometry (Octet) binding kinetics of Hhip1β12 variants to Shh; details: for Shh binding of Hhip1β12 mutants (in words): bio-layer interferometry, compared with WT Hhip1β12; for Kd / koff × 10^−4 / kon × 10^3: 1:1 binding model, n.d stands for no binding detected
T1 construct: ShhN-Cys (residues 24-197); His6 (N); made in house; host or cells: E. coli Rosetta 2
Method: The binding kinetics of the Hhip1β12 fragments as well as Hhip1β12 mutants were measured by bio-layer interferometry in the presence or absence of 10 mM EDTA on an Octet (Fortébio). Streptavidin high binding FA biosensors were loaded with biotinylated-ShhN-Cys in kinetic buffer (Fortébio). The loaded biosensors were washed and transferred to wells containing Hhip1β12 protein at concentrations of 1.2, 1.0, 0.8 and 0.6 μM in kinetic buffer. Hhip1β12 association and dissociation was measured for 30 and 20 min, respectively. Kinetic parameters (kon and koff) and affinities (KD) were calculated from a non-linear fit of the data based on a 1:1 binding model between Hhip1β12 and Shh using the Octet software. Multiple independent measurements were performed.
In order to assess the contribution of residues in the Hhip1 L1, L2 and L3 loops for binding to Shh, a series of single alanine Hipβ12 mutants were made using the QuickChange DNA mutagenesis kit (Stratagene) using the manufacturer's protocol, and their affinity for Shh was measured by bio-layer interferometry (as described in Example 2B). These mutations included Hhip1β12 mutants 1312A, E381A, M382A, D383A, D378A, T418A, Q420A, E380A, D387A and ΔL2.

[2] = tested on: Shh signaling; assay: Gli-luciferase co-culture signaling assay (S12 fibroblasts overlaid with Shh-producing HT29 cells); assay type: cell-based, murine S12 fibroblasts / human HT29 cells; details: for IC50: 24 hrs, read-out: IC50 inhibition of Shh signaling
Text: Due to the lack of both N- and C-terminal lipid modifications of Shh and the absence of other cellular components, the in vitro assays may not fully recapitulate Hip-Shh interactions occurring in a cellular environment. Therefore, a co-culture assay consisting of murine S12 fibroblasts stably transfected with a Gli luciferase reporter gene and (Frank-Kamenetsky et al. (2002) J. Biol. 1:10) and human colorectal adenocarcinoma HT29 cells that secrete fully lipid-modified Shh (Yauch et al. (2008) Nature 455:406) was used to determine which extracellular domains of Hhip1β12 mediate inhibition of Shh signaling in mammalian cells.
Briefly, S12 cells, which are 10T1/2 fibroblasts stably transfected with 8× Gli-binding sites fused to a luciferase reporter (Frank-Kamenetsky et al. (2002) J. Biol. 1:10), were plated at 10,000 cells/well of a white-walled clear bottomed 96-well plate (Costar 3610) for […] in regular growth medium (HG-DMEM, 10% FBS, 1% glutamine). After 24 h, the media was removed and Shh-producing HT29 cells at 20,000 cells/well were plated and the co-culture was grown in regular media. After 24 h, the media was changed to 0.5% serum HG-DMEM±Hhip1β12 fragments and further incubated for 24 hrs to stimulate signaling. Gli-luciferase activity was measured using a HTS-Steady Lite luciferase detection kit (Perkin Elmer); multiple assays were carried out, each in triplicate. Data were fit to a 4-parameter sigmoidal equation, from which the IC50 was derived using Kaleidagraph (Synergy Software).

[3] = tested on: Ptch1; assay: FACS assay of Shh649 binding to Ptch1 expressing 293 cells and its competition; set-up: species or system human
Method: Shh649 (1 nM) preincubated with indicated proteins was bound to Ptch1 expressing cells, washed and analyzed by FACS. The average mean Shh649 fluorescence intensity (MFI) of two independent dilution series was plotted versus inhibitor concentration, with error bars denoting standard deviations. […] Assays were carried out using octylated Ihh wildtype and T154I proteins. Concentration dependent relative luciferase units (RLU) are plotted as the average of four independent dilution series±standard deviation and normalized to the maximal Ihh WT stimulation on each plate as 100%. […] The data is representative of three independent experiments.
Shh is in the same orientation as in the Hhip-Shh complex in Panel A. Zn^2+ and Ca^2+ cations are shown. […] Surface representation of Shh with residues within 4.5 Å of Hhip (shaded gray) and Cdon (hatched areas). Area within dotted boarder indicates the boundaries of the Cdon footprint, which overlaps the Hhip binding surface. […] Shh histidine residues are shown as sticks with nitrogen atoms shaded dark. The Hhip L2 loop is shown in transparent surface and Zn^2+ cation is shown. Histidine 35 is not shown since the ordered portion of the Shh structure begins at L40. […] The spectral region of the histidine side chains is shown. […] The average mean Shh649 fluorescence intensity (MFI) of two independent dilution series was plotted versus protein concentration, with error bars denoting standard deviations. Ctrl refers to the His-6 (SEQ ID NO: 87) tagged HGF β protein. […] Shh649 (0.33 nM) was preincubated with 56 nM (170-fold excess) of Hhipβ12 wildtype or L2 mutant proteins, 5E1 or controls then bound to Ptch1 cells (black) or 293 cells (gray), washed and analyzed by FACS. Shh649 binding to Ptch1 cells in the absence of inhibitors was normalized to 100% and the data expressed as a percentage of this signal (average of two independent duplicates with standard deviations). Ctrl and CtrlFc refer to HGF β and the IgG1 isotype control Trastuzumab, respectively. The data is representative of at least three independent experiments.
Shh649, conjugated to Dylight 649 (Pierce) at its C-terminus (vide supra), was incubated at 0.33 or 1 nM for 1 h on ice with various Hhip or control proteins prior to incubation with HEK-293 cells (293) or 293 cells expressing full length human Patched-1 (Ptch1-293 clone 10) (Carpenter D. et al. (1998) Proc. Natl. Acad. Sci. USA 95:13630-13634) in FACS buffer (3% FBS in PBS) for 1 h on ice. After washing 3 times in FACS buffer, live cells (sorted by propidium iodide exclusion) were analyzed by flow cytometry in the APC channel using a FACSCalibur (BD Biosciences). Control proteins included His6-Shh, His6-Ihh, HGF β-His639, Trastuzumab (Genentech, Inc.) as a human IgG1 isotype control for Hhip1β12-Fc, and mIgG1 (Molecular Probes Z25105) as a murine Mab control for anti-Shh 5E1 Mab34.

Molecule	Shh binding of Hhip1β12 mutants (in words) [1]	Kd [1] [nM]	koff × 10^−4 [1]	kon × 10^3 [1]	Shh binding of Hhip1β12 mutants (in words) ([1]; listed as 1312A)	binding to Shh in the presence of EDTA ([1]; 10 mM EDTA)	inhibitory activity (in words) ([2]; Gli-luciferase co-culture)	maximal inhibition ([2]; at saturating conditions) [%]	IC50 fold higher than Hhip1ECD ([2]; Gli-luciferase co-culture)	IC50 ([2]; Gli-luciferase co-culture) [nM]	competition of Shh649 binding to Ptch1 cells (in words) [3]
I312A: L1 loop single alanine variant made in the Hhip1β12 construct (protein) SNYLDQMEEYDKVEEISRKHKHNCFCIQEVVSGLRQPVGALHSGDGSQRLFILEKEGYVKILTPEGEIFKEPYLDIHKLVQSGIKGGDERGLLSLAFHPNYKKNGKLYVSYTTNQERWAAGPHDHILRVVEYTVSRKNPHQVDLRTARVFLEVAELHRKHLGGQLLFGPDGFLYIILGDGMITLDDMEEMDGLSDFTGSVLRLDVDTDMCNVPYSIPRSNPHFNSTNQPPEVFAHGLHDPGRCAVDRHPTDININLTILCSDSNGKNRSSARILQIIKGKDYESEPSLLEFKPFSNGPLVGGFVYRGCQSERLYGSYVFGDRNGNFLTLQQSPVTKQWQEKPLCLGTSGSCRGYFSGHILGFGEDELGEVYILSSSKSMTQTHNGKLYKIVDPKRPLMPEECRATVQPAQTLTSECSRLCRNGYCTPTGKCCCSPGWEGDFCRTAKCEPACRHGGVCVRPNKCLCKKGYLGPQCEHHHHHH	–	320	4.8 × 10^−4 [s^−1]	1.5 × 10^3 [M^−1 × s^−1]	little effect on Shh	–	essentially identical to wildtype Hhip1β12	–	–	–	–
Hhip1β1: β-propeller-EGF1 construct (SEQ ID NO:13), residues 193-637 of SEQ ID NO:2 (protein, listed as Homo sapiens) SNYLDQMEEYDKVEEISRKHKHNCFCIQEVVSGLRQPVGALHSGDGSQRLFILEKEGYVKILTPEGEIFKEPYLDIHKLVQSGIKGGDERGLLSLAFHPNYKKNGKLYVSYTTNQERWAIGPHDHILRVVEYTVSRKNPHQVDLRTARVFLEVAELHRKHLGGQLLFGPDGFLYIILGDGMITLDDMEEMDGLSDFTGSVLRLDVDTDMCNVPYSIPRSNPHFNSTNQPPEVFAHGLHDPGRCAVDRHPTDININLTILCSDSNGKNRSSARILQIIKGKDYESEPSLLEFKPFSNGPLVGGFVYRGCQSERLYGSYVFGDRNGNFLTLQQSPVTKQWQEKPLCLGTSGSCRGYFSGHILGFGEDELGEVYILSSSKSMTQTHNGKLYKIVDPKRPLMPEECRATVQPAQTLTSECSRLCRNGYCTPTGKCCCSPGWEGDFCRTA	–	150	2.3 × 10^−4 [s^−1]	1.5 × 10^3 [M^−1 × s^−1]	–	completely abolished	–	–	about 4 fold	20.3	–
Hhip1ΔL2: Hhip1β12 mutant with deletion of the entire L2 loop (protein) SNYLDQMEEYDKVEEISRKHKHNCFCIQEVVSGLRQPVGALHSGDGSQRLFILEKEGYVKILTPEGEIFKEPYLDIHKLVQSGIKGGDERGLLSLAFHPNYKKNGKLYVSYTTNQERWAIGPHDHILRVVEYTVSRKNPHQVDLRTARVFLEVAELHRKHLGGQLLFGPDGFLYIILGDGMITTGSVLRLDVDTDMCNVPYSIPRSNPHFNSTNQPPEVFAHGLHDPGRCAVDRHPTDININLTILCSDSNGKNRSSARILQIIKGKDYESEPSLLEFKPFSNGPLVGGFVYRGCQSERLYGSYVFGDRNGNFLTLQQSPVTKQWQEKPLCLGTSGSCRGYFSGHILGFGEDELGEVYILSSSKSMTQTHNGKLYKIVDPKRPLMPEECRATVQPAQTLTSECSRLCRNGYCTPTGKCCCSPGWEGDFCRTAKCEPACRHGGVCVRPNKCLCKKGYLGPQCEHHHHHH	abrogated binding to Shh	–	–	–	–	–	no inhibitory activity	–	–	–	no inhibition

Continued, in another order:

Shh binding of Hhip1β12 mutants (in words) [1]	Kd [1] [nM]	koff × 10^−4 [1]	kon × 10^3 [1]	Shh binding of Hhip1β12 mutants (in words) ([1]; listed as 1312A)	binding to Shh in the presence of EDTA ([1]; 10 mM EDTA)	Molecule	inhibitory activity (in words) ([2]; Gli-luciferase co-culture)	maximal inhibition ([2]; at saturating conditions) [%]	IC50 fold higher than Hhip1ECD ([2]; Gli-luciferase co-culture)	IC50 ([2]; Gli-luciferase co-culture) [nM]	competition of Shh649 binding to Ptch1 cells (in words) [3]
inability	–	–	–	–	–	D383A: L2 loop single alanine variant made in the Hhip1β12 construct (protein) SNYLDQMEEYDKVEEISRKHKHNCFCIQEVVSGLRQPVGALHSGDGSQRLFILEKEGYVKILTPEGEIFKEPYLDIHKLVQSGIKGGDERGLLSLAFHPNYKKNGKLYVSYTTNQERWAIGPHDHILRVVEYTVSRKNPHQVDLRTARVFLEVAELHRKHLGGQLLFGPDGFLYIILGDGMITLDDMEEMAGLSDFTGSVLRLDVDTDMCNVPYSIPRSNPHFNSTNQPPEVFAHGLHDPGRCAVDRHPTDININLTILCSDSNGKNRSSARILQIIKGKDYESEPSLLEFKPFSNGPLVGGFVYRGCQSERLYGSYVFGDRNGNFLTLQQSPVTKQWQEKPLCLGTSGSCRGYFSGHILGFGEDELGEVYILSSSKSMTQTHNGKLYKIVDPKRPLMPEECRATVQPAQTLTSECSRLCRNGYCTPTGKCCCSPGWEGDFCRTAKCEPACRHGGVCVRPNKCLCKKGYLGPQCEHHHHHH	retained activity	~85	–	–	–
–	67	7.9 × 10^−4 [s^−1]	1.2 × 10^3 [M^−1 × s^−1]	–	–	Hhip1ECD: Hhip1 extracellular domain construct (SEQ ID NO:11), residues 20-667 of SEQ ID NO:2 (protein, listed as Homo sapiens) SNYLDQMEEYDKVEEISRKHKHNCFCIQEVVSGLRQPVGALHSGDGSQRLFILEKEGYVKILTPEGEIFKEPYLDIHKLVQSGIKGGDERGLLSLAFHPNYKKNGKLYVSYTTNQERWAIGPHDHILRVVEYTVSRKNPHQVDLRTARVFLEVAELHRKHLGGQLLFGPDGFLYIILGDGMITLDDMEEMDGLSDFTGSVLRLDVDTDMCNVPYSIPRSNPHFNSTNQPPEVFAHGLHDPGRCAVDRHPTDININLTILCSDSNGKNRSSARILQIIKGKDYESEPSLLEFKPFSNGPLVGGFVYRGCQSERLYGSYVFGDRNGNFLTLQQSPVTKQWQEKPLCLGTSGSCRGYFSGHILGFGEDELGEVYILSSSKSMTQTHNGKLYKIVDPKRPLMPEECRATVQPAQTLTSECSRLCRNGYCTPTGKCCCSPGWEGDFCRTAKCEPACRHGGVCVRPNKCLCKKGYLGPQCE	–	–	–	5.3	–
